Measurements from patent publication US10704030B2, “P450-BM3 variants with improved activity” (Codexis, Inc., priority 2015, dated 2020).
Changes are numbered by the printed parent chain. Names and notes keep the numbering of the source.

B1: Variant 17: P450-BM3 variant of SEQ ID NO: 6: K32R; C48S; Y52F; I95P; Q111R; G115R; I176V; L216Y; D232H; E349T; M491A; T577A; E619D; D722S (protein)
chain: MTIKEMPQPKTFGELKNLPLLNTDKPVQALMRIADELGEIFKFEAPGSVTRFLSSQRLIKEACDESRFDKNLSQALKFARDFLGDGLFTSWTHEPNWKKAHNILLPSFSQRAMKRYHAMMVDIAVQLVQKWERLNADEHIEVSEDMTRLTLDTIGLCGFNYRFNSFYRDQPHPFIVSMVRALDEVMNKLQRANPDDPAYDENKRQCQEDIKVMNDYVDKIIADRKARGEQSHDLLTQMLNGKDPETGEPLDDGNISYQIITFLIAGHETTSGLLSFALYFLVKNPHVLQKVAEEAARVLVDPVPSYKQVKQLKYVGMVLNEALRLWPTAPAFSLYAKEDTVLGGEYPLTKGDEVMVLIPQLHRDKTIWGDDVEEFRPERFENPSAIPQHAFKPFGNGQRACIGQQFALHEATLVLGMMLKHFDFEDHTNYELDIKETLTLKPEGFVVKAKSKKIPLGGIPSPSTEQSAKKVRKKAENAHNTPLLVLYGSNAGTAEGTARDLADIAMSKGFAPQVATLDSHAGNLPREGAVLIVTASYNGHPPDNAKQFVDWLDQASADEVKGVRYSVFGCGDKNWAATYQKVPAFIDETLAAKGAENIADRGEADASDDFEGTYEEWRDHMWSDVAAYFNLDIENSEDNKSTLSLQFVDSAADMPLAKMHGAFSTNVVASKELQQPGSARSTRHLEIELPKEASYQEGDHLGVIPRNYEGIVNRVTARFGLSASQQIRLEAEEEKLAHLPLAKTVSVEELLQYVELQDPVTRTQLRAMAAKTVCPPHKVELEALLEKQAYKEQVLAKRLTMLELLEKYPACEMKFSEFIALLPSIRPRYYSISSSPRVDEKQASITVSVVSGEAWSGYGEYKGIASNYLAELQEGDTITCFISTPQSEFTLPKDPETPLIMVGPGTGVAPFRGFVQARKQLKEQGQSLGEAHLYFGCRSPHEDYLYQEELENAQSEGIITLHTAFSRMPNQPKTYVQHVMEQDGKKLIELLDQGAHFYICGDGSQMAPAVEATLMKSYADVHQVSEADARLWLQQLEEKGRYAKDVWAG
modifications: P450_BM3
notes: C48S; Y52F; I95P; Q111R; G115R; I176V; L216Y; D232H; E349T; M491A; T577A; E619D; D722S
B2: Variant 14: P450-BM3 variant of SEQ ID NO: 4: C48S; I95P; G115R; L216Y; D232H; M491A; N574T; D722S (protein)
chain: B1 chain with R32K, F52Y, L83A, F88V, R111Q, V176I, T349E, N574T, A577T, D619E
modifications: P450_BM3
notes: I95P; G115R; L216Y; D232H; M491A; N574T; D722S
B3: Variant 15: P450-BM3 variant of SEQ ID NO: 4: K32R; C48S; I95P; L216Y; D232H; E349T; M491A; N574T; T577A; E619D; D722S (protein)
chain: B1 chain with F52Y, L83A, F88V, R111Q, R115G, V176I, N574T
modifications: P450_BM3
notes: C48S; I95P; L216Y; D232H; E349T; M491A; N574T; T577A; E619D; D722S

Experiments:
Type in all cases: biochemical
[1] = Validation of generalist properties: oxidation of loratadine by lyophilized P450-BM3 variant, UPLC-MS; settings: [Loratadine] = 1 mM; for TON: TON = [substrate]*% conversion/[P450]; for FIOPC (A07): fold improvement over parent MCYP-1.2-A07
Outline: (§1)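 Lyophilized lysate of E. coli-expressed P450-BM3 variant (stock standardized to 12 μM heme) was incubated 24 h at 30 °C with 1 or 2 mM substrate, 1.0 mM NADP+, 25 mM glucose, 0.5 mg/mL glucose dehydrogenase and 5% DMSO in 100 mM potassium phosphate. Acetonitrile-quenched samples were analyzed by UPLC-MS (positive ESI).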

[2] = Validation of generalist properties: oxidation of imatinib by lyophilized P450-BM3 variant, UPLC-MS; settings: [Imatinib] = 1 mM; for TON: TON = [substrate]*% conversion/[P450]; for FIOPC (A07): fold improvement over parent MCYP-1.2-A07
Outline: as §1

[3] = Validation of generalist properties over the four substrates screened
Experimental: For the production of lyophilized protein powders, LB agar plates supplemented with chloramphenicol (30 μg/mL) were streaked with E. coli containing a desired B. megaterium P450-BM3 variant in an IPTG-inducible vector. The plates were grown at 37° C. for 16 hrs before single clones were selected to inoculate a 15 mL Falcon™ tube (Fisher) containing TB media (3 mL) supplemented with chloramphenicol (30 μg/mL). The tube was shaken at 200 rpm, 30° C., and 85% humidity for 20-24 h to grow the cultures to saturation. Then, 2.5 mL of the overnight culture was used to inoculate sterile 1 L flasks containing TB medium (250 mL) supplemented with chloramphenicol (30 μg/mL), trace element solution (as described above), and 0.05 g/L ammonium iron (III) citrate. After being shaken at 250 rpm, 30° C., and 85% humidity to an OD600 of 0.8-1.2, P450 expression was induced by addition of IPTG (500 uM) and the heme precursor 5-aminolevulinic acid (5-ALA) to a final concentration of 500 uM. The cultures were grown for additional 20-24 hours and centrifuged in pre-weighed 250 mL centrifuge bottles for 20 minutes at 4000 rpm, 4° C. The supernatants were discarded, and the centrifuge bottles containing cell pellets were weighed. The pellets were resuspended in 50 mM potassium phosphate buffer with 2 mM DTT, pH 8.0 (5 mL of buffer per gram of cell pellet). The cells were lysed using a microfluidizer homogenizer, and the suspensions of cells and lysate were collected in sterile 50 mL centrifuge tubes. The samples were centrifuged for 30 minutes at 10,000 rpm, 4° C. The clarified lysate was collected into a plastic petri plate and frozen at −80° C. prior to lyophilization. The enzyme-containing lysates were lyophilized using standard methods known in the art.
Enzyme stocks (˜12 μM) were prepared by dissolving ˜20 mg of each enzyme in 100 mM potassium phosphate buffer, pH 8.0 (1 mL). The concentration of each enzyme stock solution was determined by the UV-visible absorption spectroscopy (after centrifugation to remove particulates) and diluted to standardize at 12 μM heme protein. Substrate solutions were prepared by dissolving each substrate in DMSO to reach a final concentration of 20 mM or 40 mM. Reaction mix (235 μL) followed by enzyme solution (50 μL) was added to the plates. The substrate stock solution was added to the enzyme solutions (15 μL at the two different concentrations). Each reaction contained 100 mM potassium phosphate, 1.0 mM NADP+, 25 mM glucose, 0.5 mg/mL glucose dehydrogenase, 5% DMSO and substrate at 1 or 2 mM. Loratadine, imatinib, and gefitinib (See, FIG. 1) were selected as substrates in addition to diclofenac to validate improved BM3 variants. The reactions were shaken at 450 rpm at 30° C. over 24 hours. All reactions were diluted with acetonitrile to a final concentration of 0.5 mM substrate. The plates were then centrifuged at 3,000 g for 1 hour at 20° C. The supernatant was diluted 1:1 with acetonitrile, filtered using a 0.4 micron filter, and analyzed by UPLC-MS.
For UPLC-MS analysis, the quenched and filtered reactions were transferred to 96-well HTP plates for analysis by UPLC on a Waters Acquity H-class system equipped with an autosampler. 1 uL of quenched sample was injected onto an Acquity UPLC HSS T3 column, 100 Å, (1.8 um; 2.1×100 mm). […] Column eluent was monitored by PDA (200-600 nm) prior to MS analysis in positive ESI mode (desolvation temperature 350° C., 3.25 kV spray voltage, cone voltage 25V). […]

[4] = Validation of generalist properties: oxidation of diclofenac by lyophilized P450-BM3 variant, UPLC-MS; settings: [Diclofenac] = 1 mM; for TON: TON = [substrate]*% conversion/[P450]; for FIOPC (A07): fold improvement over parent MCYP-1.2-A07
Outline: as §1

[5] = Validation of generalist properties: oxidation of gefitinib by lyophilized P450-BM3 variant, UPLC-MS; settings: [Gefitinib] = 1 mM; for TON: TON = [substrate]*% conversion/[P450]; for FIOPC (A07): fold improvement over parent MCYP-1.2-A07
Outline: as §1

[6] = fold improvement over parent MCYP-1.2-A12

Molecule | % Conv. [1] | TON [1] | FIOPC (A12) [1, 6] | % Conv. [2] | TON [2] | FIOPC (A12) [2, 6] | performance (% conversion at 1 mM substrate loading) over the substrates screened, in words [3] | % Conv. [4] | TON [4] | FIOPC (A12) [4, 6] | % Conv. [5] | TON [5] | FIOPC (A12) [5, 6] | FIOPC (A07) [1] | FIOPC (A07) [2] | FIOPC (A07) [4] | FIOPC (A07) [5]
B1 | + (0-5.00) | ‡ (0-1000) | * (0.0-3.0) | ++++ (15.01-20.00) | ‡‡‡‡ (10000-50000) | **** (10.01-15.00) | improved and significant activity for three out of four substrates screened | ++++ (15.01-20.00) | ‡‡‡‡ (10000-50000) | * (0.0-3.0) | ++++ (15.01-20.00) | ‡‡‡‡ (10000-50000) | *** (5.01-10.0) |  |  |  | 
B2 | +++ (10.01-15.00) | ‡‡‡ (5001-10000) |  | +++ (10.01-15.00) | ‡‡‡ (5001-10000) |  | moderate activity for all four substrates | ++++ (15.01-20.00) | ‡‡‡‡ (10000-50000) |  | ++++ (15.01-20.00) | ‡‡‡‡ (10000-50000) |  | * (0.0-3.0) | * (0.0-3.0) | ** (3.01-5.0) | **** (10.01-15.00)
B3 | ++++ (15.01-20.00) | ‡‡‡‡ (10000-50000) |  | ++++ (15.01-20.00) | ‡‡‡ (5001-10000) |  | moderate activity for all four substrates | ++++ (15.01-20.00) | ‡‡‡‡ (10000-50000) |  | ++++ (15.01-20.00) | ‡‡‡‡ (10000-50000) |  | * (0.0-3.0) | ** (3.01-5.0) | * (0.0-3.0) | **** (10.01-15.00)
